{"source": "ChEMBL document CHEMBL4007386", "about": "“Design, synthesis of allosteric peptide activator for human SIRT1 and its biological evaluation in cellular model of Alzheimer's disease” (Eur J Med Chem, 2017)", "conditions_in_all_cases": "Homo sapiens", "key": {"[1]": {"compound": "N=C(N)NCCC[C@H](NC(=O)[C@H](Cc1c[nH]c2ccccc12)NC(=O)[C@@H](N)CS)C(=O)O", "experiment": "Allosteric activation of SIRT1 (unknown origin) expressed in bacterial expression system assessed as Vmax for substrate at 40 uM using Fluorophore labeled-Arg-His-Lys-Lys (Ac) as substrate incubated for 30 mins in presence of NAD+ by fluorimetric method (reference value: 1666.67 uM)"}, "[2]": {"compound": "N=C(N)NCCC[C@H](NC(=O)[C@H](Cc1c[nH]c2ccccc12)NC(=O)[C@@H](N)CS)C(=O)O", "experiment": "Allosteric activation of SIRT1 (unknown origin) expressed in bacterial expression system assessed as Vmax for substrate at 80 uM using Fluorophore labeled-Arg-His-Lys-Lys (Ac) as substrate incubated for 30 mins in presence of NAD+ by fluorimetric method (reference value: 1666.67 uM)"}, "[3]": {"compound": "N=C(N)NCCC[C@H](NC(=O)[C@H](Cc1c[nH]c2ccccc12)NC(=O)[C@@H](N)CS)C(=O)O", "experiment": "Allosteric activation of SIRT1 (unknown origin) expressed in bacterial expression system assessed as Vmax for substrate at 120 uM using Fluorophore labeled-Arg-His-Lys-Lys (Ac) as substrate incubated for 30 mins in presence of NAD+ by fluorimetric method (reference value: 1666.67 uM)"}, "[4]": {"compound": "N=C(N)NCCC[C@H](NC(=O)[C@H](Cc1c[nH]c2ccccc12)NC(=O)[C@@H](N)CS)C(=O)O", "experiment": "Allosteric activation of SIRT1 (unknown origin) expressed in bacterial expression system assessed as Vmax for substrate at 160 uM using Fluorophore labeled-Arg-His-Lys-Lys (Ac) as substrate incubated for 30 mins in presence of NAD+ by fluorimetric method (reference value: 1666.67 uM)"}, "[5]": {"compound": "N=C(N)NCCC[C@H](NC(=O)[C@H](Cc1c[nH]c2ccccc12)NC(=O)[C@@H](N)CS)C(=O)O", "experiment": "Allosteric activation of SIRT1 (unknown origin) expressed in bacterial expression system assessed as apparent Km for substrate at 40 uM using Fluorophore labeled-Arg-His-Lys-Lys (Ac) as substrate incubated for 30 mins in presence of NAD+ by fluorimetric method (reference value: 507 uM)"}, "[6]": {"compound": "N=C(N)NCCC[C@H](NC(=O)[C@H](Cc1c[nH]c2ccccc12)NC(=O)[C@@H](N)CS)C(=O)O", "experiment": "Allosteric activation of SIRT1 (unknown origin) expressed in bacterial expression system assessed as apparent Km for substrate at 80 uM using Fluorophore labeled-Arg-His-Lys-Lys (Ac) as substrate incubated for 30 mins in presence of NAD+ by fluorimetric method (reference value: 507 uM)"}, "[7]": {"compound": "N=C(N)NCCC[C@H](NC(=O)[C@H](Cc1c[nH]c2ccccc12)NC(=O)[C@@H](N)CS)C(=O)O", "experiment": "Allosteric activation of SIRT1 (unknown origin) expressed in bacterial expression system assessed as apparent Km for substrate at 120 uM using Fluorophore labeled-Arg-His-Lys-Lys (Ac) as substrate incubated for 30 mins in presence of NAD+ by fluorimetric method (reference value: 507 uM)"}, "[8]": {"compound": "N=C(N)NCCC[C@H](NC(=O)[C@H](Cc1c[nH]c2ccccc12)NC(=O)[C@@H](N)CS)C(=O)O", "experiment": "Allosteric activation of SIRT1 (unknown origin) expressed in bacterial expression system assessed as apparent Km for substrate at 160 uM using Fluorophore labeled-Arg-His-Lys-Lys (Ac) as substrate incubated for 30 mins in presence of NAD+ by fluorimetric method (reference value: 507 uM)"}}}
{"protein": "NAD-dependent protein deacetylase sirtuin-1 (Homo sapiens), Q96EB6 (protein) MADEAALALQPGGSPSAAGADREAASSPAGEPLRKRPRRDGPGLERSPGEPGGAAPEREVPAAARGCPGAAAAALWREAEAEAAAAGGEQEAQATAAAGEGDNGPGLQGPSREPPLADNLYDEDDDDEGEEEEEAAAAAIGYRDNLLFGDEIITNGFHSCESDEEDRASHASSSDWTPRPRIGPYTFVQQHLMIGTDPRTILKDLLPETIPPPELDDMTLWQIVINILSEPPKRKKRKDINTIEDAVKLLQECKKIIVLTGAGVSVSCGIPDFRSRDGIYARLAVDFPDLPDPQAMFDIEYFRKDPRPFFKFAKEIYPGQFQPSLCHKFIALSDKEGKLLRNYTQNIDTLEQVAGIQRIIQCHGSFATASCLICKYKVDCEAVRGDIFNQVVPRCPRCPADEPLAIMKPEIVFFGENLPEQFHRAMKYDKDEVDLLIVIGSSLKVRPVALIPSSIPHEVPQILINREPLPHLHFDVELLGDCDVIINELCHRLGGEYAKLCCNPVKLSEITEKPPRTQKELAYLSELPPTPLHVSEDSSSPERTSPPDSSVIVTLLDQAAKSNDDLDVSESKGCMEEKPQEVQTSRNVESIAEQMENPDLKNVGSSTGEKNERTSVAGTVRKCWPNRVAKEQISRRLDGNQYLFLPPNRYIFHGAEVYSDSEDDVLSSSSCGSNSDSGTCQSPSLEEPMEDESEIEEFYNGLEDEPDVPERAGGAGFGTDGDDQEAINEAISVKQEVTDMNYPSNKS", "values": [{"measurement": "Vmax", "setting": "[1]", "result": 1430, "unit": "µM"}, {"measurement": "Vmax", "setting": "[2]", "result": 1250, "unit": "µM"}, {"measurement": "Vmax", "setting": "[3]", "result": 1110, "unit": "µM"}, {"measurement": "Vmax", "setting": "[4]", "result": 1110, "unit": "µM"}, {"measurement": "Km", "setting": "[5]", "result": 236, "unit": "µM"}, {"measurement": "Km", "setting": "[6]", "result": 168, "unit": "µM"}, {"measurement": "Km", "setting": "[7]", "result": 72, "unit": "µM"}, {"measurement": "Km", "setting": "[8]", "result": 75, "unit": "µM"}]}
